Experimental data taken from paper PMC7336809, “AcnSP – A Novel Small Protein Regulator of Aconitase Activity in the Cyanobacterium Synechocystis sp. PCC 6803” (Frontiers in Microbiology, 2020).

Experiments:
[1] = target: recombinant Synechocystis 6803 aconitase (AcnB), His-tagged (Synechocystis sp. PCC 6803) (UniProt P74582)
purified protein = substrate: O=C(O)/C=C(/CC(=O)O)C(=O)O; test: purified protein; assay type: biochemical, Synechocystis sp. PCC 6803; settings: 10 mM DTT (reducing), no AcnSP, 50 mM Tris-malate pH 7.5, 30°C, 0.3 mM NADP+, 2 mM Na2EDTA, 10 mM MnCl2

Kcat of aconitase with 2 nmol AcnSP added to 2 nmol AcnB, oxidizing conditions (−DTT); control without AcnSP 3.46 [1] [s^–1]	Kcat of aconitase with 2 nmol AcnSP added to 2 nmol AcnB, reducing conditions (+10 mM DTT); control without AcnSP 14.92 [1] [s^–1]	Molecule	Km (purified protein) [µM]	Vmax (purified protein) [µmol/min/mg]	kcat (purified protein) [s⁻¹]
3.15	13.8	synthetic AcnSP peptide (aconitase small protein)			
		recombinant AcnB (aconitase B, Slr0665) (Synechocystis sp. PCC 6803 substr. Kazusa) (protein, full-length (868 aa), His-tagged from pET28a(+) (NdeI/SalI), E. coli BL21 (DE3), Ni-NTA; medium supplemented with Fe-citrate for iron-sulfur centers) MLQAYRRHVADRQKLGIPPLPLNAQQTTELCELLKNPPEAEKEELMMLLRDRVPPGVDEAAYVKAGFLTAIAKGEVTCPLISGQGAVDLLGTMIGGYNVQSLIELLKSKDTNIASAAATALSKTLLVFDAFNDVLHLSDTNGYAKQVIDAWAEGAWFINKPEVPERITVTVFKVPGETNTDDLSPAPHATTRPDIPLHALAMLEAKMPEGLGTIAELKQKGHPVAYVGDVVGTGSSRKSAINSVLWHIGTDIPFVPNKRAGGYILGGKIAPIFFNTAEDSGALPIECDVNQLNTGDVITIYPREGKITNKAGETITTFQLKPETILDEVRAGGRIPLLIGRALTDKTREALGLSPSPLFVRPTAPADTGKGFTLAQKMVGKACGVQGIRPGTSCEPIMTTVGSQDTTGPMTRDELKELACLGFNADLTLQTFCHTAAYPKPVDIKTHKDLPDFFSTRGGVALRPGDGIIHSWLNRMLLPDTVGTGGDSHTRFPLGISFPAGSGLVAFAAALGVMPLDMPESVLVKFTGELQPGVTLRDIVNAIPWVAMQQGKLTVGKGDKVNVFNGRIMEMEGLPDLKVEQAFELTDATAERSCSGSTIKLSEETVAEYLRSNVVLMKNMIARGYQDARTLLRRIAKMEEWLANPSLMSGDADAEYADVIEVNLDEIKEPIVAAPNDPDNVKLMSECAGDVIHEVFIGSCMTNIGHYRAAAKILEGAGTVKGRLWICPPTRMDEQQLREEGIYGIFAAAGARTEMPGCSLCMGNQARVEDGVTVFSTSTRNFNNRMGKGAQVYLGSAELAAVCALLGKIPTVEEYLAIVSEKVAPFEGELYRYLNFNEIDNFEDFGRVIPLDQMPKIEDILGMPVGAK	371 ± 20	9.04	14.9
